{"source": "paper PMC4949242", "about": "“Conjugative DNA Transfer Is Enhanced by Plasmid R1 Partitioning Proteins”", "molecules": {"B1": {"name": "ParM with C-terminal FLAG epitope (pMS-CFLAGparM) (natural protein)", "chain": "MLVFIDDGSTNIKLQWQESDGTIKQHISPNSFKREWAVSFGDKKVFNYTLNGEQYSFDPISPDAVVTTNIAWQYSDVNVVAVHHALLTSGLPVSEVDIVCTLPLTEYYDRNNQPNTENIERKKANFRKKITLNGGDTFTIKDVKVMPESIPAGYEVLQELDELDSLLIIDLGGTTLDISQVMGKLSGISKIYGDSSLGVSLVTSAVKDALSLARTKGSSYLADDIIIHRKDNNYLKQRINDENKISIVTEAMNEALRKLEQRVLNTLNEFSGYTHVMVIGGGAELICDAVKKHTQIRDERFFKTNNSQYDLVNGMYLIGN"}, "B2": {"name": "dsparC (iterons 1 and 2) (dsDNA)", "DNA 1": "AAACAAAACCCAAAAACAACCC", "DNA 2": "GGGTTGTTTTTGGGTTTTGTTT"}, "B3": {"name": "CreParMK123A (Cre fused to ParM residues 2-320 with K123A) (protein)", "chain": "LVFIDDGSTNIKLQWQESDGTIKQHISPNSFKREWAVSFGDKKVFNYTLNGEQYSFDPISPDAVVTTNIAWQYSDVNVVAVHHALLTSGLPVSEVDIVCTLPLTEYYDRNNQPNTENIERKAANFRKKITLNGGDTFTIKDVKVMPESIPAGYEVLQELDELDSLLIIDLGGTTLDISQVMGKLSGISKIYGDSSLGVSLVTSAVKDALSLARTKGSSYLADDIIIHRKDNNYLKQRINDENKISIVTEAMNEALRKLEQRVLNTLNEFSGYTHVMVIGGGAELICDAVKKHTQIRDERFFKTNNSQYDLVNGMYLIGN"}, "B4": {"name": "CreParMS39A (Cre fused to ParM residues 2-320 with S39A) (protein)", "chain": "LVFIDDGSTNIKLQWQESDGTIKQHISPNSFKREWAVAFGDKKVFNYTLNGEQYSFDPISPDAVVTTNIAWQYSDVNVVAVHHALLTSGLPVSEVDIVCTLPLTEYYDRNNQPNTENIERKKANFRKKITLNGGDTFTIKDVKVMPESIPAGYEVLQELDELDSLLIIDLGGTTLDISQVMGKLSGISKIYGDSSLGVSLVTSAVKDALSLARTKGSSYLADDIIIHRKDNNYLKQRINDENKISIVTEAMNEALRKLEQRVLNTLNEFSGYTHVMVIGGGAELICDAVKKHTQIRDERFFKTNNSQYDLVNGMYLIGN"}}, "key": {"[1]": {"target": "TraI, relaxase/helicase of plasmid R1 (plasmid R1 (R1-16), in E. coli)"}, "[2]": {"target": "T1, ParR (Escherichia coli plasmid R1, UniProt P11906 1-117)", "T1 sequence": "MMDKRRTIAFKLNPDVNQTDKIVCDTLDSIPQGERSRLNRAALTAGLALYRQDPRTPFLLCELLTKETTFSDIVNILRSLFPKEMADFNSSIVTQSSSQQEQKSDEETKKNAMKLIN", "assay": "EMSA; ParR 20-320 nM; EMSA: 10 mM Tris-HCl pH 7.5, 50 mM NaCl, 0.005% NP-40, 1 mM DTT, 1 mM EDTA, 25 C, 20 min (DNA 20 nM in Methods, 4 nM in Fig 5 legend); fluorescence: 20 mM Tris-HCl pH 7.5, 100 mM NaCl, 1 mM EDTA, 25 C, 4 nM oriT17*, 0-100 nM TraI", "conditions": "protein: recombinant; tags: none stated; chain copies: 2; label: 3'-TAMRA"}, "[3]": {"target": "T1, ParR", "assay": "EMSA; shift from 5:1 protein/DNA molar ratio; EMSA: 10 mM Tris-HCl pH 7.5, 50 mM NaCl, 0.005% NP-40, 1 mM DTT, 1 mM EDTA, 25 C, 20 min (DNA 20 nM in Methods, 4 nM in Fig 5 legend); fluorescence: 20 mM Tris-HCl pH 7.5, 100 mM NaCl, 1 mM EDTA, 25 C, 4 nM oriT17*, 0-100 nM TraI", "conditions": "protein: recombinant; tags: none stated; chain copies: 2; label: 3'-TAMRA on strand 1; blunt"}, "[4]": {"target": "TraD, type IV coupling protein (T4CP) of plasmid R1 (plasmid R1 (R1-16), in E. coli)"}, "[5]": {"target": "TraI (Escherichia coli plasmid R1, UniProt Q6TDU5 1-1756)", "assay": "fluorescence intensity titration; unit not printed with value; nM from titration range; EMSA: 10 mM Tris-HCl pH 7.5, 50 mM NaCl, 0.005% NP-40, 1 mM DTT, 1 mM EDTA, 25 C, 20 min (DNA 20 nM in Methods, 4 nM in Fig 5 legend); fluorescence: 20 mM Tris-HCl pH 7.5, 100 mM NaCl, 1 mM EDTA, 25 C, 4 nM oriT17*, 0-100 nM TraI", "conditions": "protein: recombinant; label: 3'-TAMRA"}, "[6]": {"target": "T2, TraIΔN308 (helicase domain) (Escherichia coli plasmid R1, UniProt Q6TDU5 309-1756, del1-308)", "T2 sequence": "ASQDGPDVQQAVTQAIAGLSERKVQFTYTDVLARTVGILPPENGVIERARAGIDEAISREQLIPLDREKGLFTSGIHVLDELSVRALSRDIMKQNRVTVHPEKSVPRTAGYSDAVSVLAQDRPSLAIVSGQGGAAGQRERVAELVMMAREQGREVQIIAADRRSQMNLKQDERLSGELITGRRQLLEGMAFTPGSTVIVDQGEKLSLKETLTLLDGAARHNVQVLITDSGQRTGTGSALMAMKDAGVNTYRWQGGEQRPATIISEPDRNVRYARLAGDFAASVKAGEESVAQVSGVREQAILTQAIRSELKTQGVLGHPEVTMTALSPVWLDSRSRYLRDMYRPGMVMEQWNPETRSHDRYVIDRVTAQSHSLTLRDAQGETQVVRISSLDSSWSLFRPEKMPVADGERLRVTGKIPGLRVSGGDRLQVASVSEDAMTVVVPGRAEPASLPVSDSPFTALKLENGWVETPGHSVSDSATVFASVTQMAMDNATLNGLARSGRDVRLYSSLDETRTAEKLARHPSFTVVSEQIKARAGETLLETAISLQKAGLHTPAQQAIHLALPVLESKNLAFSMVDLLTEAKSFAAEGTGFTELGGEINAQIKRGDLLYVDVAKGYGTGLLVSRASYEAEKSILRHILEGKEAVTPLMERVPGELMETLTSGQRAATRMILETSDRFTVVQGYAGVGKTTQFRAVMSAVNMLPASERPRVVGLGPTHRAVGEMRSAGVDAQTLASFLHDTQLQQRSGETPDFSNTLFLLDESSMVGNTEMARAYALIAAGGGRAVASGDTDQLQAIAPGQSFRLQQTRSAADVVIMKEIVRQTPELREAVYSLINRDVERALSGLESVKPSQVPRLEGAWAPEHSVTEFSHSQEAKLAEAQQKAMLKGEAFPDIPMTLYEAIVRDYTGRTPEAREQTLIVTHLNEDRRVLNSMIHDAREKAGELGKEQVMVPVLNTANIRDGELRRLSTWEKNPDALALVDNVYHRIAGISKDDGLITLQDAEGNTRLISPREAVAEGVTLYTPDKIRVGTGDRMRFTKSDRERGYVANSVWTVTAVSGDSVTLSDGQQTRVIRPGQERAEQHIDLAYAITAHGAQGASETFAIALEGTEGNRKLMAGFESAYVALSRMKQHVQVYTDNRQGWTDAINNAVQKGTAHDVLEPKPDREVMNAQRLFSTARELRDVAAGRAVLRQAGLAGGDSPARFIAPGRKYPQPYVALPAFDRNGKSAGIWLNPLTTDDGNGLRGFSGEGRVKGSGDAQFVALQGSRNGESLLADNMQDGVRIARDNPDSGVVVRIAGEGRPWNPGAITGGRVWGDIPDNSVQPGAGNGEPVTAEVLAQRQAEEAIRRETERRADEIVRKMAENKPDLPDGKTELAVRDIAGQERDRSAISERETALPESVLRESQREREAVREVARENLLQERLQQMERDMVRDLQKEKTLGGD", "assay": "fluorescence intensity titration; unit not printed with value; nM from titration range; EMSA: 10 mM Tris-HCl pH 7.5, 50 mM NaCl, 0.005% NP-40, 1 mM DTT, 1 mM EDTA, 25 C, 20 min (DNA 20 nM in Methods, 4 nM in Fig 5 legend); fluorescence: 20 mM Tris-HCl pH 7.5, 100 mM NaCl, 1 mM EDTA, 25 C, 4 nM oriT17*, 0-100 nM TraI", "conditions": "protein: recombinant; label: 3'-TAMRA"}, "[7]": {"target": "T3, TraIN308 (relaxase domain) (Escherichia coli plasmid R1, UniProt Q6TDU5 1-308)", "T3 sequence": "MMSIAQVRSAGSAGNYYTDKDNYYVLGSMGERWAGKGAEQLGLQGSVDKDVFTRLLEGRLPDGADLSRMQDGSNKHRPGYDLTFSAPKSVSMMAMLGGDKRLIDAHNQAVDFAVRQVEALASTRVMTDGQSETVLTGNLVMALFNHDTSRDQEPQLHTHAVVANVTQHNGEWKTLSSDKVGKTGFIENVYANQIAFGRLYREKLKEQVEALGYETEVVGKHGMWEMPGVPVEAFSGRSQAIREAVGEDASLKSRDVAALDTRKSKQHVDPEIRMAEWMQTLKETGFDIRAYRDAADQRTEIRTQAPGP", "assay": "fluorescence intensity titration; unit not printed with value; nM from titration range; EMSA: 10 mM Tris-HCl pH 7.5, 50 mM NaCl, 0.005% NP-40, 1 mM DTT, 1 mM EDTA, 25 C, 20 min (DNA 20 nM in Methods, 4 nM in Fig 5 legend); fluorescence: 20 mM Tris-HCl pH 7.5, 100 mM NaCl, 1 mM EDTA, 25 C, 4 nM oriT17*, 0-100 nM TraI", "conditions": "protein: recombinant; label: 3'-TAMRA"}}}
{"molecule": "ParR with C-terminal FLAG epitope (pMS-CFLAGparR) (natural protein)", "values": [{"measurement": "TraI (25 nM) relaxase activity on supercoiled oriT plasmid pDE100 (4 nM), percent open circular DNA, with increasing purified untagged ParR; maximum at 10 nM ParR", "setting": "[1]", "value": 4, "unit": "fold"}]}
{"molecule": "ACCAAAAGCACCACACCCCACGCAAAAACAAG (ssDNA)", "note": "[ssoriT]", "values": [{"measurement": "binding result", "setting": "[2]", "value": "no binding"}]}
{"molecule": "B1", "values": [{"measurement": "TraI (25 nM) relaxase activity on supercoiled oriT plasmid pDE100 (4 nM), percent open circular DNA, with increasing purified untagged ParM; maximum at 20-30 nM ParM", "setting": "[1]", "value": 3, "unit": "fold"}]}
{"molecule": "B2", "values": [{"measurement": "binding result", "setting": "[3]", "value": "binds"}]}
{"molecule": "CGAACGAGCAGTTGTTTCAGCG (ssDNA)", "note": "[ssrnd]", "values": [{"measurement": "binding result", "setting": "[2]", "value": "no binding"}]}
{"molecule": "AAACAAAACCCAAAAACAACCC (ssDNA)", "note": "[ssparC]", "values": [{"measurement": "binding result", "setting": "[2]", "value": "no binding"}]}
{"molecule": "B3", "values": [{"measurement": "translocation of CreParMK123A to recipient cells by the R1-16 T4SS (CRAfT), percent of wild type Cre-ParM (% of wild type levels)", "setting": "[4]", "value": 24.5}]}
{"molecule": "B4", "values": [{"measurement": "translocation of CreParMS39A to recipient cells by the R1-16 T4SS (CRAfT), percent of wild type Cre-ParM (% of wild type levels)", "setting": "[4]", "value": 59}]}
{"molecule": "TTTGCGTGGGGTGTGGT (ssDNA)", "note": "[oriT17*]", "values": [{"measurement": "Kd", "setting": "[5]", "value": "4.05 ± 0.32", "unit": "nM"}, {"measurement": "Kd", "setting": "[6]", "value": "82.6 ± 13.1", "unit": "nM"}, {"measurement": "Kd", "setting": "[7]", "value": "0.87 ± 0.19", "unit": "nM"}]}
